In article PMC6741145 one finds stoichiometry N data, which are given here for one substance.

This assay deals with His6‐tagged DP1 (small subunit of DNA polymerase D) of Thermococcus sp. 4557 (Thermococcus sp. 4557). The experiment in a line: SEC; 100 µg of each protein or mixture on Superdex‐200 HR10/30 in 25 mM Tris‐HCl pH 7.5, 100 mM NaCl, 10% glycerol; fractions on SDS–PAGE, Coomassie.

The stoichiometry N is the number of molecules, sites or subunits per partner or assembly. With “His6‐tagged DP1 (small subunit of DNA polymerase D) of Thermococcus sp. 4557 (enzyme)”, the stoichiometry N worked out at 2.
